{"source": "paper PMC10764958", "molecular_target": "SARS2-NP WT (bacterial) (SARS-CoV-2, UniProt P0DTC9 1-419)", "assay": "MST; MST: PBS with 0.05% Tween, room temperature; […]", "settings": "protein: recombinant; tags: 2xStrep (C-term); chain copies: 2", "data": [{"binder": "Cy5-RNA (SARS-CoV-2 RNA) (ssRNA) RNA: CACUCGCUAUGUCGAUAACAACUUCUGUGGCCCUGAUGGCUACCCUCUUGAGUGCAUUAAAGA", "values": [{"measurement": "binding result", "result": "binds"}]}]}
